Measured values: US20150258192A1, “COMPOSITIONS AND METHODS FOR PREVENTING OR TREATING CHRONIC LUNG ALLOGRAFT DYSFUNCTION (CLAD) AND IDIOPATHIC PULMONARY FIBROSIS (IPF)” (priority 2014, published 2015)
No end group written: not given here.

How the values were obtained:
Experiment in all cases: Kinase Profiling Assay
Assay type in all cases: biochemical
Conditions in all cases: peptide 100 μM
[1] = target: PKCβII(h) (Homo sapiens, UniProt P05771)
Description: (§1) Every kinase activity measurement was conducted in duplicate.
(§2) Specifically, in these assays, a positively charged substrate is phosphorylated with a radiolabeled phosphate group from an ATP if the kinase is not inhibited by an inhibitor peptide. The positively charged substrate then is attracted to a negatively charged filter membrane, quantified with a scintillation counter, and compared to a 100% activity control.
(§3) In addition to determining the IC50 of the compound, the specificity of MK2 inhibitory peptides was assessed by examining activities of all 266 human kinases available for testing in the Millipore kinase profiling service (Table 1).

[2] = target: T1, TAO3(h) (Homo sapiens, UniProt Q9H2K8)
T1 construct: purchased Millipore
T1 sequence (Q9H2K8 1-898): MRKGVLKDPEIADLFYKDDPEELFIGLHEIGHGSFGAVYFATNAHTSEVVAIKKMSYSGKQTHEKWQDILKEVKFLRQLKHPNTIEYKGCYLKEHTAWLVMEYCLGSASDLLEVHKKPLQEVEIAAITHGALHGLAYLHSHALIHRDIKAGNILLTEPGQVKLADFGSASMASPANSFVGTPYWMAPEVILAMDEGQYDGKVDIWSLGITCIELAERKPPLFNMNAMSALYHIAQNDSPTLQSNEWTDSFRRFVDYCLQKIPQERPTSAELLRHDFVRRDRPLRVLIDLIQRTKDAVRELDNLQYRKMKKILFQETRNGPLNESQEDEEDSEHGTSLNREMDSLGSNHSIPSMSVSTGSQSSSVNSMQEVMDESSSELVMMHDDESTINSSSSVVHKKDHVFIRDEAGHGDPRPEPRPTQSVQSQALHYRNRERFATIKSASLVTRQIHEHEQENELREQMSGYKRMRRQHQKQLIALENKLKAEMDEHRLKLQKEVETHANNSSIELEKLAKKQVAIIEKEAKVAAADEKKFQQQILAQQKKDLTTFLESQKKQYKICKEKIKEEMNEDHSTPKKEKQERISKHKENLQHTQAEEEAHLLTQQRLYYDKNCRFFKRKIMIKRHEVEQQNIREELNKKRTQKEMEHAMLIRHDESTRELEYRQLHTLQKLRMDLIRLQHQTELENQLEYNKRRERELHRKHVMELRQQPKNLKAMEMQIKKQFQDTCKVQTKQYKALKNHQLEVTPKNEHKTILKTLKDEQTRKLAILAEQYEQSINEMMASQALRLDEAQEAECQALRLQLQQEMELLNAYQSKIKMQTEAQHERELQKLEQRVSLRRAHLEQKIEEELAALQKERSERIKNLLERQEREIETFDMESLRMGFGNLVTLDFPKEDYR
Description: as §1, §2, §3

[3] = target: T2, Itk(h) (Homo sapiens, UniProt Q08881)
T2 construct: purchased Millipore
T2 sequence (Q08881 1-620): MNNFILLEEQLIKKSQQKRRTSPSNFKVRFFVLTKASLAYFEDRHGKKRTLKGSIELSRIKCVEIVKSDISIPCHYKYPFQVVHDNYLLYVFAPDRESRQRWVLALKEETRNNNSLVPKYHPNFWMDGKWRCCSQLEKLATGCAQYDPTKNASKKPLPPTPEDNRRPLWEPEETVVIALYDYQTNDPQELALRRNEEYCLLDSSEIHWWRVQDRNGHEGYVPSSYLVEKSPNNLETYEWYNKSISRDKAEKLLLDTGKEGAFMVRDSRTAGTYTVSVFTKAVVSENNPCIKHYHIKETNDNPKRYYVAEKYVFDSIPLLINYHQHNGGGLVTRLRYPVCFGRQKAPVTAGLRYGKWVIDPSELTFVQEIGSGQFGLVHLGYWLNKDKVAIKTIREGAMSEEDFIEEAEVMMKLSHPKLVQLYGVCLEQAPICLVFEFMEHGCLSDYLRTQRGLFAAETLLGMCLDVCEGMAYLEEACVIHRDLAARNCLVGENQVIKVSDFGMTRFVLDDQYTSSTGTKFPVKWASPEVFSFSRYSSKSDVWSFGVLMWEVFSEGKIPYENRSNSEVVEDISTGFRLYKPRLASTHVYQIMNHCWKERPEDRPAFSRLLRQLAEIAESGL
Description: as §1, §2, §3

[4] = target: FGFR4(h) (Homo sapiens, UniProt P22455)
Description: as §1, §2, §3

[5] = target: TrkB(h) (Homo sapiens, UniProt Q16620)
Description: as §1, §2, §3

[6] = target: cKit(h) (Homo sapiens, UniProt P10721)
Description: as §1, §2, §3

[7] = target: CLK3(h) (Homo sapiens, UniProt P49761)
Sequence of CLK3(h) (P49761 whole entry): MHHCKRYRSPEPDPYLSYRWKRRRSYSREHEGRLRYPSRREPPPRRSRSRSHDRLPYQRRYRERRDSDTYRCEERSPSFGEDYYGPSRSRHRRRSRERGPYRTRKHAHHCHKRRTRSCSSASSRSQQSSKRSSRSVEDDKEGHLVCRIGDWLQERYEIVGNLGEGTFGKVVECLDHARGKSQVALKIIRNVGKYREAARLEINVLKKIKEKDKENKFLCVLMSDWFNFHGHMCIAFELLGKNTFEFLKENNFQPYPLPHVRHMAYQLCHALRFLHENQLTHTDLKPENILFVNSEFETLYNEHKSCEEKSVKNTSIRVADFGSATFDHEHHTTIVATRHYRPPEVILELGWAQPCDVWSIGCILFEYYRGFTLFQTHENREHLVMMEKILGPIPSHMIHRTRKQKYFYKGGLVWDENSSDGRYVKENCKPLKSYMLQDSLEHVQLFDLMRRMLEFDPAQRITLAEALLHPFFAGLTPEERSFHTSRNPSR
Description: as §1, §2, §3

[8] = target: Tie2(Y897S)(h) (Homo sapiens, UniProt Q02763, Y897S)
Sequence of Tie2(Y897S)(h) (Q02763 23-1124 Y897S): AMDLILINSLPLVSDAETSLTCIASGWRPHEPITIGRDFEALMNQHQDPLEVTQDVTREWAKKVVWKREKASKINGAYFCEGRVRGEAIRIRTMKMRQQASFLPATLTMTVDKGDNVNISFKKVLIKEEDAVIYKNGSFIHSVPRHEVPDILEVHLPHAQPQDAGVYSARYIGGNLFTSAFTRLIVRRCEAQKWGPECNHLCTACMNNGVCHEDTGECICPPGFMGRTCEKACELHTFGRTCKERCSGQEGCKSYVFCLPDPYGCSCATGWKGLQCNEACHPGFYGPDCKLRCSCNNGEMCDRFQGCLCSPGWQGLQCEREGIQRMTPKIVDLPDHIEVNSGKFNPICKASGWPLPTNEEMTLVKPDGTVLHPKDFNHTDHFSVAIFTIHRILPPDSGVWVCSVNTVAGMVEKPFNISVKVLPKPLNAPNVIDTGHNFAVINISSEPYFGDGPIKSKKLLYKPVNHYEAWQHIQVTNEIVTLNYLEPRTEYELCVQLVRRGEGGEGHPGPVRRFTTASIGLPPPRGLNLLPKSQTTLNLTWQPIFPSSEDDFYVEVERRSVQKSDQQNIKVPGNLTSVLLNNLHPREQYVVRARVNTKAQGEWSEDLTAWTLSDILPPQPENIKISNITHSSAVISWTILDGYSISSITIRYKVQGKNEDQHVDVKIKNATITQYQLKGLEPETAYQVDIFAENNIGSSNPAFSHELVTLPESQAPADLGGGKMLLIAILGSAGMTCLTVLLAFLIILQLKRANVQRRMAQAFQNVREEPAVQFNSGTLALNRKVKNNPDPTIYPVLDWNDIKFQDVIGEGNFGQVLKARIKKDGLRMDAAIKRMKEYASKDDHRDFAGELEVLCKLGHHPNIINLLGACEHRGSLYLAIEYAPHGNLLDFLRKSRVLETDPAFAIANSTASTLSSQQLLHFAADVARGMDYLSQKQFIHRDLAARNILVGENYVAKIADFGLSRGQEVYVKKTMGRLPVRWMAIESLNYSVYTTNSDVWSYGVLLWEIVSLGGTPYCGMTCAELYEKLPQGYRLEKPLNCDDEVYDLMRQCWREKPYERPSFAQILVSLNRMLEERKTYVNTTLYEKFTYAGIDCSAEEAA
Description: as §1, §2, §3

[9] = target: Ax1(h) (Homo sapiens, UniProt P30530)
Description: as §1, §2, §3

[10] = target: Fes(h) (Homo sapiens, UniProt P07332)
Sequence of Fes(h) (P07332 whole entry): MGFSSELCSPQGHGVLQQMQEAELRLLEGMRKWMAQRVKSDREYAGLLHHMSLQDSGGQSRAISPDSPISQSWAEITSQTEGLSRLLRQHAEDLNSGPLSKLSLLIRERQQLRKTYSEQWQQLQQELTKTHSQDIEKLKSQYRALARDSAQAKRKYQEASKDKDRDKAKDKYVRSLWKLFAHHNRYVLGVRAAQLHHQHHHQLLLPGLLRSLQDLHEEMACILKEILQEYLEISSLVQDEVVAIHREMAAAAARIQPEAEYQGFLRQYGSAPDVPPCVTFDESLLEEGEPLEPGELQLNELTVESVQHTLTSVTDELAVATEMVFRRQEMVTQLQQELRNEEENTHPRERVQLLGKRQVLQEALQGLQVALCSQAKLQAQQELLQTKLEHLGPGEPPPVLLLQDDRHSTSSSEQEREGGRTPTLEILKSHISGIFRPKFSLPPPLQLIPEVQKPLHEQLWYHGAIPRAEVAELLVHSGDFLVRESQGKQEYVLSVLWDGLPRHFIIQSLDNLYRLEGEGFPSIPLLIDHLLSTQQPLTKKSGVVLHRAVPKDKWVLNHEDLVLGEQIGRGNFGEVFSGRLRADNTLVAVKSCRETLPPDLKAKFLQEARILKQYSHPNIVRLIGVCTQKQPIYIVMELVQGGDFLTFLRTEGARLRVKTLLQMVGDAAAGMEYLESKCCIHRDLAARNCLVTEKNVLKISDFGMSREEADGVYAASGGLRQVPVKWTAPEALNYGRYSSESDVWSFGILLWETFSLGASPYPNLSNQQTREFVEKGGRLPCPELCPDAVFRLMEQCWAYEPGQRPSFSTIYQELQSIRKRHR
Description: as §1, §2, §3

[11] = target: CHK2(I157T)(h) (Homo sapiens, UniProt O96017, I157T)
Sequence of CHK2(I157T)(h) (O96017 whole entry I157T): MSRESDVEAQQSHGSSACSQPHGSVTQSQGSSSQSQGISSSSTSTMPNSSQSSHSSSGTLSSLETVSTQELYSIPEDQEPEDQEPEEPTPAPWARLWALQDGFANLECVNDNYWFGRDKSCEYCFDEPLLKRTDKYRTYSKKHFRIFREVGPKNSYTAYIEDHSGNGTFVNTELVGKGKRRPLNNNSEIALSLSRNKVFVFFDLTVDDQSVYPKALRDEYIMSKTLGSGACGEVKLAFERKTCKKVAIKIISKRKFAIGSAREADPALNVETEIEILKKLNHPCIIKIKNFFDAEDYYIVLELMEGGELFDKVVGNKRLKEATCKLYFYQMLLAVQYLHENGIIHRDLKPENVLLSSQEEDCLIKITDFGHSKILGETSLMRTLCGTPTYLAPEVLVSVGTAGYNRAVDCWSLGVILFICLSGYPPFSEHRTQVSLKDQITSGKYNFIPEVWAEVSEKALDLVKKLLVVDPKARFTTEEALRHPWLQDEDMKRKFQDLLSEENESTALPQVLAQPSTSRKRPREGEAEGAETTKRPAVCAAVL
Description: as §1, §2, §3

[12] = target: T3, SGK3(h) (Homo sapiens, UniProt Q96BR1)
T3 construct: purchased Millipore
T3 sequence (Q96BR1 1-496): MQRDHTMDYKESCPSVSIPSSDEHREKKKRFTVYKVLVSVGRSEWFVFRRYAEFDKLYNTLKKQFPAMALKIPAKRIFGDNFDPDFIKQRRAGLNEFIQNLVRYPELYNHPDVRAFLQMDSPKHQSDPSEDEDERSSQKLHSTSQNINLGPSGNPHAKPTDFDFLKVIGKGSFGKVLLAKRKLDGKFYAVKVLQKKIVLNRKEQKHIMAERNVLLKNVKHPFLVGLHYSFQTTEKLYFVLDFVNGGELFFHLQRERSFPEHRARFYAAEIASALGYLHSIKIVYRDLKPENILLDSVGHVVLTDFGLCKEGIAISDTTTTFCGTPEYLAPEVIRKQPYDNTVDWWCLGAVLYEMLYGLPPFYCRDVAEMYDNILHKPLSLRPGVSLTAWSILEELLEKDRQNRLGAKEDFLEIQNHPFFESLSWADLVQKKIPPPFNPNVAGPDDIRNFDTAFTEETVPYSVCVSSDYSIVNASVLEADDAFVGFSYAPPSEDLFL
Description: as §1, §2, §3

Sequence of PKCβII(h) (P05771 1-673 isoform P05771-2): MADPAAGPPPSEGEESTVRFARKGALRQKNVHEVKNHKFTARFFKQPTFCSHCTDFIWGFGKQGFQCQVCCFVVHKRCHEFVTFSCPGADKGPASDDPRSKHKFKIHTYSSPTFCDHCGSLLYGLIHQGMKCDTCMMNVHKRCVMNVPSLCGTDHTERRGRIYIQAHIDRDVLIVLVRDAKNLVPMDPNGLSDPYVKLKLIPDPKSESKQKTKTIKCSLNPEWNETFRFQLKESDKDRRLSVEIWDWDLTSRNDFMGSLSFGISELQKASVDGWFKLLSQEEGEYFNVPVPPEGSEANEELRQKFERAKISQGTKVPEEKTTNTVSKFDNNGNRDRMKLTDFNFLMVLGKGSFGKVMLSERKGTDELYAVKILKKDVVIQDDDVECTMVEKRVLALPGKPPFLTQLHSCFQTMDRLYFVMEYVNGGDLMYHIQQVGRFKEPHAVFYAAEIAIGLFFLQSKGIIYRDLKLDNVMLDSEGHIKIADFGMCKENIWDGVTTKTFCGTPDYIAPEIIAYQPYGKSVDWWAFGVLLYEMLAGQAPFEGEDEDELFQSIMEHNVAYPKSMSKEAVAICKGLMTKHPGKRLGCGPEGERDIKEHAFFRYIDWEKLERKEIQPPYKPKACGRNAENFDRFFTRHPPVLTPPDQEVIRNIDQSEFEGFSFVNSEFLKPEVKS

Sequence: FAKLAARLYRKALARQLGVAA [MMI-0300]
- % activity [1]: 82%
- % activity [2]: 77%
- % activity [3]: 77%
- % activity [4]: 28%
- % activity [5]: 5%
- % activity [6]: 53%
- % activity [7]: 61%
- % activity [8]: 83%
- % activity [9]: 52%
- % activity [10]: 20%
- % activity [11]: 43%
- % activity [12]: 10%

Sequence: HRRIKAWLKKIKALARQLGVAA (Mammal) [MMI-0500]
- % activity [1]: 3%
- % activity [2]: 12%
- % activity [3]: 7%
- % activity [4]: 3%
- % activity [5]: 12%
- % activity [6]: 45%
- % activity [7]: 76%
- % activity [8]: 80%
- % activity [9]: 12%
- % activity [10]: 23%
- % activity [11]: 3%
- % activity [12]: -3%

Sequence: KAFAKLAARLYRKALARQLGVAA [MMI-0400]
- % activity [1]: 75%
- % activity [2]: 67%
- % activity [3]: 63%
- % activity [4]: 19%
- % activity [5]: 8%
- % activity [6]: 43%
- % activity [7]: 84%
- % activity [8]: 87%
- % activity [9]: 41%
- % activity [10]: 16%
- % activity [11]: 41%
- % activity [12]: 8%

Sequence: YARAAARQARAKALARQLGVAA [MMI-0100]
- % activity [2]: 45%
- % activity [3]: 99%
- % activity [5]: 4%
- % activity [6]: 95%
- % activity [7]: 108%
- % activity [8]: 99%
- % activity [9]: 81%
- % activity [11]: 97%
- % activity [12]: 95%

Sequence: YARAAARQARAKALNRQLGVA (Mammal) [MMI-0200]
- % activity [1]: 100%
- % activity [3]: 98%
- % activity [4]: 75%
- % activity [5]: 7%
- % activity [6]: 110%
- % activity [7]: 76%
- % activity [8]: 85%
- % activity [9]: 99%
- % activity [10]: 74%
- % activity [11]: 85%
- % activity [12]: 58%
